Data: the supplement of paper PMC10724198
± gives the standard deviation of the averaged measurements.

test system: Saccharomyces cerevisiae; experiment: protein stability index of tFT-peptide fusion (C-terminal peptide) (PSI (0-1 scale)); higher = more stable (slower turnover); settings: genetic background: wild type; temperature: 30 C
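Also: PSI is a weighted mean of sequencing reads over stability bins, variants kept only with over 10 reads, mCherry proximal and sfGFP distal, peptide attached via GGGS linker.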

| Sequence | protein stability index |
| --- | --- |
| RNDAARLLGESG | 0.698 ± 0.018 |
| RNGFGSWFRWKM | 0.7014 ± 0.0069 |
| RNGGSTWPLLGA | 0.721 ± 0.017 |
| RNILMFSNGVDE | 0.681 ± 0.014 |
| RNLRFEVLAVVI | 0.5272 ± 0.0049 |
| RNPYNTNTVSNI | 0.732 ± 0.08 |
| RNRKQEKKENKN | 0.695 ± 0.022 |
| RNRNKKIIREKK | 0.7 ± 0.033 |
| RNSVGGHENWNQ | 0.703 ± 0.11 |
| RPAASTKWAVQP | 0.6923 ± 0.0021 |
| RPAVSCYTGGDH | 0.7083 ± 0.0056 |
| RPDRPSGLLPRP | 0.701 ± 0.039 |
| RPFHLLPPPPPL | 0.73 ± 0.019 |
| RPFLVGRISFSS | 0.693 ± 0.046 |
| RPFPLPPRPSPP | 0.673 ± 0.13 |
| RPGSMWAQGGVG | 0.566 ± 0.0078 |
| RPISPIAVGSVV | 0.6747 ± 0.0013 |
| RPLAVPPRPSPV | 0.729 ± 0.049 |
| RPLLIYSPFPLF | 0.662 ± 0.075 |
| RPLNLPPPPAPF | 0.659 ± 0.072 |
| RPLPPLPRPPSP | 0.557 ± 0.02 |
| RPPFSPPSDLPL | 0.645 ± 0.025 |
| RPPGQVSEALEW | 0.68961 ± 3.4e-05 |

| Sequence | protein stability index |
| --- | --- |
| RPPHSNPPRLVI | 0.711 ± 0.045 |
| RPPLLSPTRTLP | 0.707 ± 0.15 |
| RPPPHLTPRVSL | 0.689 ± 0.047 |
| RPPPHYPHHTAS | 0.673 ± 0.018 |
| RPPPPPPPSPHL | 0.692 ± 0.041 |
| RPPPPRLTPPRL | 0.756 ± 0.084 |
| RPPSLSPAPAPP | 0.73 ± 0.027 |
| RPPVGTPPLPHS | 0.66 ± 0.0091 |
| RPQARAQRRQAC | 0.583 ± 0.034 |
| RPRKTVTDLMAG | 0.663 ± 0.01 |
| RPRNRRGGRGDE | 0.672 ± 0.0062 |
| RPSLPPRSPPPS | 0.767 ± 0.069 |
| RPSPMPTATPAT | 0.701 ± 0.029 |
| RPSPPPTPPGPH | 0.656 ± 0.039 |
| RPSPVLRASHPP | 0.638 ± 0.0099 |
| RPSRPPPRLLFA | 0.644 ± 0.03 |
| RPTPSHRTPSIG | 0.723 ± 0.016 |
| RPVQRLVPLTPR | 0.706 ± 0.054 |
| RPVRLLPCVCHF | 0.679 ± 0.017 |
| RQANQVSTSAEN | 0.726 ± 0.11 |
| RQLPMHLTSPGT | 0.66 ± 0.021 |
| RQSDPFCCSTHP | 0.7449 ± 0.0023 |
| RQTTTPHDRDGR | 0.566 ± 0.049 |

| Sequence | protein stability index |
| --- | --- |
| RQVERRARRDRV | 0.671 ± 0.055 |
| RRAPASAFPHSP | 0.688 ± 0.06 |
| RRAPRQKLIPAK | 0.6768 ± 0.0055 |
| RRDRFSLRGFTE | 0.701 ± 0.013 |
| RREASLGSYSFE | 0.69778 ± 0.00039 |
| RREDWQEKRYGL | 0.761 ± 0.083 |
| RRERRKKTETDK | 0.7348 ± 0.0073 |
| RRGAVHWKQFTR | 0.732 ± 0.072 |
| RRGAVWDLVGDG | 0.571 ± 0.029 |
| RRGDMSEGEREE | 0.672 ± 0.052 |
| RRGVPIKKPRYF | 0.539 ± 0.029 |
| RRGYLVPLPSHA | 0.669 ± 0.039 |
| RRHGTDEHKTAD | 0.674 ± 0.016 |
| RRKGRKTSMRNG | 0.667 ± 0.048 |
| RRKRKQQNTTTE | 0.685 ± 0.016 |
| RRKRQKEGEIRE | 0.7362 ± 0.0064 |
| RRLATRMGPCDA | 0.682 ± 0.011 |
| RRLGVACCVVEG | 0.599 ± 0.0061 |
| RRLLERSIKRSE | 0.696 ± 0.016 |
| RRLSRPPNLSRH | 0.676 ± 0.021 |
| RRMCARRSAAIV | 0.665 ± 0.046 |
| RRNSAGCRLDKM | 0.662 ± 0.09 |
| RRPHLLCSPARL | 0.883 ± 0.012 |

| Sequence | protein stability index |
| --- | --- |
| RRREGGQGERGK | 0.694 ± 0.087 |
| RRRGEREKRPRA | 0.653 ± 0.021 |
| RRRLRSGYCCLV | 0.6861 ± 0.00091 |
| RRRPNSSMYRVS | 0.658 ± 0.015 |
| RRSAWCAALPGR | 0.704 ± 0.0089 |
| RRSDTTQQSVSL | 0.623 ± 0.077 |
| RRSHGLAGPKKG | 0.674 ± 0.05 |
| RRSVQLQSALFI | 0.736 ± 0.069 |
| RRVPPGTPCGTR | 0.708 ± 0.073 |
| RRVTTSFWPLGS | 0.671 ± 0.067 |
| RSARGQFRGISC | 0.739 ± 0.23 |
| RSDGRWYAGGLG | 0.737 ± 0.018 |
| RSDIANWFLCLS | 0.798 ± 0.037 |
| RSDPLPKTSAAY | 0.644 ± 0.12 |
| RSGFTSSPLRSG | 0.681 ± 0.034 |
| RSGREFLLSSLI | 0.718 ± 0.084 |
| RSGRSLVGREGG | 0.703 ± 0.059 |
| RSIQNLQENIIR | 0.663 ± 0.073 |
| RSLGLVGWGFWG | 0.762 ± 0.12 |
| RSMLRVELSGVA | 0.562 ± 0.031 |
| RSPAPPAPPHLP | 0.7068 ± 0.0012 |
| RSPPPRAPPPSV | 0.645 ± 0.06 |
| RSPPYRPPCLRP | 0.722 ± 0.02 |

| Sequence | protein stability index |
| --- | --- |
| RSRAYDSLPADQ | 0.682 ± 0.058 |
| RSRVLALSCRSA | 0.641 ± 0.029 |
| RSRYWRTHGKVN | 0.557 ± 0.028 |
| RSSPAVPPSPRP | 0.6918 ± 0.0066 |
| RSSPRCPPSPGH | 0.7247 ± 0.0018 |
| RSSSGANLQTTL | 0.6517 ± 0.0031 |
| RSTLGLAPPQSG | 0.67 ± 0.029 |
| RSTPPHAHRSPP | 0.716 ± 0.015 |
| RSVPHPGGPSPC | 0.649 ± 0.037 |
| RSVPLLFPSLFL | 0.72 ± 0.027 |
| RSVQSATSHGYQ | 0.749 ± 0.15 |
| RSYFGLACPSVS | 0.626 ± 0.03 |
| RSYGVGYEGDKG | 0.719 ± 0.054 |
| RTAEGRVRGRPR | 0.689 ± 0.067 |
| RTASRSVSTTQN | 0.745 ± 0.024 |
| RTGAPSGEACCA | 0.676 ± 0.026 |
| RTGRTCADRPTP | 0.757 ± 0.043 |
| RTGVTKYSETLI | 0.677 ± 0.091 |
| RTIPSPDVRTRD | 0.77 ± 0.011 |
| RTKTQGKKRRQN | 0.57 ± 0.032 |
| RTPRGCSLAYRA | 0.72 ± 0.11 |
| RTRKYEDKSARM | 0.688 ± 0.021 |
| RTRRPSRTRSAS | 0.772 ± 0.072 |

| Sequence | protein stability index |
| --- | --- |
| RTTNHRLPQPPR | 0.632 ± 0.063 |
| RVCPPPLRRLLS | 0.693 ± 0.081 |
| RVGERVEGGGVV | 0.6085 ± 0.0034 |
| RVGGVVRGERAR | 0.671 ± 0.01 |
| RVGSRRGVVCLL | 0.7526 ± 0.0014 |
| RVGWCGGWRGGR | 0.677 ± 0.059 |
| RVHEMSLGPIRL | 0.715 ± 0.036 |
| RVHSRSYNVMLD | 0.6988 ± 0.00049 |
| RVIEWHEEKLRV | 0.783 ± 0.017 |
| RVKNVDAVKKHK | 0.635 ± 0.0088 |
| RVLSVRFRIGRE | 0.636 ± 0.061 |
| RVPLHSSTVFWL | 0.7 ± 0.04 |
| RVPPAIPSRRAC | 0.682 ± 0.06 |
| RVPRYEKIVSSI | 0.658 ± 0.013 |
| RVRRWGSSTLVG | 0.676 ± 0.041 |
| RVRWRSQRSMVV | 0.689 ± 0.025 |
| RVSGSFSCVCES | 0.6814 ± 0.0054 |
| RVSIDIMNALGR | 0.627 ± 0.033 |
| RVSPWSDLSAFL | 0.745 ± 0.045 |
| RVVGGRDVRGGG | 0.737 ± 0.049 |
| RWFQSSDVVDRQ | 0.703 ± 0.086 |
| RWGGWGYRGGVP | 0.752 ± 0.062 |
| RWRECVVWGVWG | 0.663 ± 0.0096 |

| Sequence | protein stability index |
| --- | --- |
| RWRRGGRRAPWP | 0.62 ± 0.012 |
| RWSCLADQSANR | 0.7052 ± 0.0051 |
| RWWRLRSGGGRR | 0.707 ± 0.017 |
| RYHLHFIGDVGF | 0.6974 ± 0.0042 |
| SAGPNCVWSSYN | 0.732 ± 0.0098 |
| SAIGVGGVGTGG | 0.633 ± 0.039 |
| SALFLVPRASWL | 0.659 ± 0.036 |
| SALTSLAFGSFE | 0.704 ± 0.046 |
| SAPPLPPPPPPP | 0.682 ± 0.016 |
| SAPSAAPPRSHP | 0.708 ± 0.025 |
| SAPVPPSPPRPR | 0.8 ± 0.0089 |
| SAPYLSTTLSVK | 0.671 ± 0.011 |
| SAQGPVLFSTGP | 0.716 ± 0.044 |
| SARFALSQAPPI | 0.814 ± 0.12 |
| SARSAARRWVRR | 0.694 ± 0.026 |
| SASGARVEARMH | 0.6435 ± 0.0017 |
| SASLPSPCPDFG | 0.6703 ± 0.0021 |
| SASSAHLDGACR | 0.691 ± 0.0075 |
| SASSFGTLYCYS | 0.6966 ± 0.0019 |
| SASVARSRRCVR | 0.612 ± 0.057 |
| SASVLPSPLPPV | 0.708 ± 0.028 |
| SATLRCASLSFC | 0.679 ± 0.014 |
